Data: paper PMC11275975, “Structural basis for transcription activation through cooperative recruitment of MntR” (Research Square, 2024)

Target: the molecule itself
Experiment: mass photometry; MntR alone, in the presence of 1 mM Mn2+; single peak; monomers to dimer

B1: manganese transport regulator (MntR) from B. subtilis, wild type (natural protein)
chain: MTTPSMEDYIEQIYMLIEEKGYARVSDIAEALAVHPSSVTKMVQKLDKDEYLIYEKYRGLVLTSKGKKIGKRLVYRHELLEQFLRIIGVDEEKIYNDVEGIEHHLSWNSIDRIGDLVQYFEEDDARKKDLKSIQKKTEHHNQ
notes: MntR, manganese transport regulator, Bacillus subtilis; dimer of 142-residue subunits; the cryo-EM maps show residues 3-142; Expressed from the pSMT3 vector as a His6-SUMO fusion; the tag was cut off with ULP-1; Assayed with 1 mM Mn2+ (two Mn2+ ions per subunit); also called WT MntR; MntR2 (dimer); source: E. coli BL21(DE3)NiCo, purified (TALON, ULP-1 cleavage, Ni-NTA)
stoichiometry N: 2
